Test results reported in the supplement of paper PMC9170038.

Legend:
MS2 coat protein [1] = assay: apparent KD of MS2 coat protein, switch ON state; designed switch direction (-1 OFF switch, 1 ON switch): 1; higher = weaker reporter binding; settings: FMN input: 0 or 200 uM; Eterna round: R93 (includes R88 designs)
Method in brief: (§1)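 Titrations with SNAP-549-labelled MS2 coat protein ran in twofold steps from 0.7 or 1.5 nM to 3 µM, each step taking 0.8–1.5 h at the start and 10–20 min toward the end. The targets were designed RNA switches transcribed on-chip from Illumina sequencing clusters, held in 100 mM Tris-HCl pH 7.5, 80 mM KCl, 4 mM MgCl2, without or with constant ligand. Apparent KD was taken per design as the median of normalised cluster binding-curve fits.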

MS2 coat protein [2] = assay: apparent KD of MS2 coat protein, switch OFF state (with FMN for OFF switches, without FMN for ON switches); designed switch direction (-1 OFF switch, 1 ON switch): 1; higher = weaker reporter binding; settings: FMN input: 0 or 200 uM; Eterna round: R93 (includes R88 designs)
Method in brief: as §1

Sequence	apparent KD of MS2 coat protein (MS2 coat protein [1])	apparent KD of MS2 coat protein (MS2 coat protein [2])
CCGAGGAAGAGAGAGGAUAUCCAAAGGAAAACAUGAGGAUCACCCAUGUAAAAGGUAGGAAAUUGGGAGAAGGCUCAAGAGAGAG [salish99-ss2-072]	0.0387 µM	0.0471 µM
CCUAGGAAGAGAGAGGAUAUCCAAAGGAAAACAUGAGGAUCACCCAUGUAAAAGGUAGGAAAUUGGGAGAAGGCUCAAGAGAGAG [salish99-ss2-088]	0.0209 µM	0.0239 µM
CGAAAGGAGAGAGAGGAUAUCCAAAGGAAAACAUGAGGAUCACCCAUGUAGAAGGUAGGAGAUUGGGAGAAGGCUCAAGCAAAAC [salish99-ss2-157]	0.0159 µM	0.0186 µM
CGAAGACAUGAGGAUCACCCAUGUGGGAUUAUGGGAGGAUAUACAAAGACGAGAGUCAGAGUAGAAGGCCUAGGAC [salish99-ss1-127(!)]	0.026 µM	0.0334 µM
CGAAGACAUGAGGAUCACCCAUGUGGGAUUAUGGGAGGAUAUACAAAGACGAGAGUCAGAGUAGAAGGCCUAGGAU [salish99-ss1-125(!)]	0.0224 µM	0.0478 µM
CGAGAGGAGAGAGAGGAUAUCCAAAGGAAAACAUGAGGAUCACCCAUGUAGAAGGUAGGAGAUUGGGAGAAGGCUCAAGAAGAAG [salish99-ss2-159]	0.0182 µM	0.026 µM
CGCAAACAUGAGGAUCACCCAUGUCAUUGUGAUCAAGGAUAUGGGUUCCGAAGUGGAACACCAGAAGGUGAGUAGU [Sozaer]	0.224 µM	0.497 µM
CGCCAAUUGGCACAGGAUAUGAGCAUGCUCACAUGAGGAUCACCCAUGUGAUUAACAACGCAAUAUCAGAAGGGUGCCCUCAUCA [Leonon]	0.0503 µM	0.0331 µM
CGCGAACAUGAGGAUCACCCAUGUAGCGGGAAACAAGGAUAUGGGAGGCGAAAUCGCGGAUCAGAAGGUGUAAGCG [Laaratat]	0.0147 µM	0.0124 µM
CGGAAAGAGAGAGAGGAUAUCCAAAGGAAAACAUGAGGAUCACCCAUGUAGAAGGUAGGAAAUUGGGAGAAGGCUCAAGAGAGAG [salish99-ss2-132]	0.0253 µM	0.0267 µM
CGGAAGGAGAGAGAGGAUAUCCAAAGGAAAACAUGAGGAUCACCCAUGUAGAAGGUAGGAAAUUGGGAGAAGGCUCAAGAGAGUG [salish99-ss2-121]	0.0302 µM	0.0446 µM
CGGAAGGAGAGGGAGGAUAUCCAAAGGAAAACAUGAGGAUCACCCAUGUAGAAGGUAGGAAAUUGGGAGAAGGCUCAAGAGAGAG [salish99-ss2-131]	0.0323 µM	0.0244 µM
CGGAGACAUGAGGAUCACCCAUGUGAGAAGAGGCGAGGAUAUCGAAAGAAAGAAGAGAAACGAGAAGGCGCGAGUC [salish99-SS1-078]	0.0204 µM	0.025 µM
CGGCAAGAGAGAGAGGAUAUCCAAAGGAAAACAUGAGGAUCACCCAUGUAGAAGGUAGGAAAUUGGGAGAAGGCUCAAGAGAGAG [salish99-ss2-135]	0.0232 µM	0.0184 µM
CGGUAAGAGAGAGAGGAUAUCCAAAGGAAAACAUGAGGAUCACCCAUGUAGAAGGUAGGAAAUUGGGAGAAGGCUCAAGAGAGAG [salish99-ss2-133]	0.0584 µM	0.0617 µM
CUGGACCUAGGAUAGGAUAUGUGAAUAAUUACAUGAGGAUCACCCAUGUCCAUUUAUAUGGGAACAUAGAAGGGUUUUGGUUAAG [Mat - Same state - Malcolm Mod - D147]	0.103 µM	0.164 µM
GAAAAACAUGAGGAUCACCCAUGUACAAAUAUGGAAGGAUAUACGAUGACGAAAGUCAAAGUAGAAGGUCUAAAAG [Garnet 98]	0.0209 µM	0.0254 µM
GAAAAACAUGAGGAUCACCCAUGUAGAAAUAUGGGAGGAUAUACAAAGACGAAAGUCAAAGUAGAAGGCCUGAAGA [Mat - Same State 1 - JL mod - D91]	0.0271 µM	0.0731 µM
GAAAAACAUGAGGAUCACCCAUGUAGAAAUAUGGGAGGAUAUACAAAGACGAAAGUCAAAGUAGAAGGCCUGAGAA [Mat - Same State 1 - Eli mod - 83]	0.021 µM	0.103 µM

Sequence	apparent KD of MS2 coat protein (MS2 coat protein [1])	apparent KD of MS2 coat protein (MS2 coat protein [2])
GAAAAACAUGAGGAUCACCCAUGUAGAAAUAUGGGAGGAUAUACAAGGACGAAAGUCAAGGUAGAAGGCCUAAAAG [Mat - Same State 1 - Eli mod - 26]	0.0338 µM	0.0986 µM
GAAAAACAUGAGGAUCACCCAUGUGGAAAUAUGGGAGGAUAUACGAAGACGAAAGUCAAAGUAGAAGGCCUAAAAG [Same State 1.4c (Mat - Mod of Eli - )]	0.022 µM	0.0838 µM
GAAAAACAUGAGGAUCACCCAUGUGUAAAUAUGGAAGGAUAUACGAAGACGUAAGUCAAAGUAGAAGGUCUAAAAG [Garnet 99]	0.0193 µM	0.0249 µM
GAAGACAUAGUUCAGGAUAUAGGAAUAGUCACAUGAGGAUCACCCAUGUGCAUUUAUAUGCGCACUUAGAAGGGAGGUAGUUAAU [Mat - Same state - Malcolm Mod - D120]	0.0284 µM	0.0268 µM
GACAAACAUGAGGAUCACCCAUGUAGAAAUAUGGGAGGAUAUACACAGACGAAAGUCAAAGUAGAAGGCCUAAAAG [77%, Mat - Mod of Eli - With 2 more C's]	0.0285 µM	0.137 µM
GACCGGGACGCGUAGGAUAUGUAGUGCGCUACAUGAGGAUCACCCAUGUGCGAGACUUCAAAAGAGCAGAAGGGUGUGUGCCCGG [Xegeedri]	0.0402 µM	0.0658 µM
GAGAAACAUGAGGAUCACCCAUGUAGAAAUAUGGGAGGAUAUACAAAGACGAAAGUCAAAGUAGAAGGCCUAAAAG [77%, Mat - Mod of Eli - With 1 more G's]	0.026 µM	0.0559 µM
GAGAAGGAGAGAGAGGAUAUCCAAAGGAAAACAUGAGGAUCACCCAUGUAAAAGGUAGGAAAUUGGGAGAAGGCUCAAGAGAGAG [salish99-ss2-108(!)]	0.033 µM	0.0343 µM
GAGAUACAUGAGGAUCACCCAUGUUGAAACAUGGGAGGAUAUACAAGGUCGAAAGAUAAGGUAGAAGGCCUAAAAG [LROPPY Same State 1 - v04_deltaG=3.]	0.0376 µM	0.0203 µM
GAGCCGCGGGCACAGGAUAUGCUCGGGCAAACAUGAGGAUCACCCAUGUGCGGCCUAAAUACGACGCAGAAGGGUGCUUGUGUGU [Lausisan]	0.0365 µM	0.102 µM
GGAAGACAUGAGGAUCACCCAUGUGGGAAUAUGGGAGGAUAUACAAAGACGAGAGUCAGAGUAGAAGGCCUAGGAU [salish99-ss1-100]	0.044 µM	0.138 µM
GGCAGGAAGAGAGAGGAUAUCCAAAGGAAAACAUGAGGAUCACCCAUGUAAAAGGUAGGAAAUUGGGAGAAGGCUCAAGAGAGAG [salish99-ss2-099]	0.0309 µM	0.0354 µM
GGGAGACAUGAGGAUCACCCAUGUGAGAAGAGGCGAGGAUAUCGAAAAAAAAAAAAAAAACGAGAAGGCGCGAGAC [salish99-SS1-006]	0.0336 µM	0.0945 µM
GGGAGACAUGAGGAUCACCCAUGUGAGAAGAGGCGAGGAUAUCGAAAGAAAGAAGAGAAACGAGAAGGCGCGAGCA [salish99-SS1-052]	0.0391 µM	0.0604 µM
GGGAGGAAGAGAGAGGAUAUCCAAAGGAAAACAUGAGGAUCACCCAUGUAAAAGGUAGGAAAUUGGGAGAAGGCUCAAGAGAUGG [salish99-ss2-052]	0.059 µM	0.0392 µM
GGGAGUAACAGAGAGGAUAUCCAAAGGAAAACAUGAGGAUCACCCAUGUAAAAGGAAGGAAAUUGGGAGAAGGCUCAAAAUAGAA [salish99-ss2-021]	0.0139 µM	0.027 µM
GUGGACGUAGGAUAGGAUAUAUGAAUAAUUACAUGAGGAUCACCCAUGUCCAUUUAUAUGGGAACAUAGAAGGGUUGUGGUUAAC [Mat - Same state - Malcolm Mod - D132]	0.364 µM	0.602 µM
GUGGUGUAGGUACAGGAUAUGUUGCUCGUAACAUGAGGAUCACCCAUGUACCUAUGAGAUUAAAUGCAGAAGGGUGCACACCACG [Alage]	0.0373 µM	0.118 µM
UAAAAAAAAAGACAGGAUAUCCAAAAGAAAACAUGAGGAUCACCCAUGUAAAAGAAAAUAAAAUGGGAGAAGGGUCAAAAAAAAU [Mat - Same State 2 - JL mod - D79]	0.031 µM	0.0535 µM
